# Laboratory results reported in US20220306695A1, “COMPSTATIN ANALOGUES AND THEIR MEDICAL USES” (priority 2019, published 2022).
# Starred links: 1 amine or outer side, 2 acyl side, 3 side chain; linkers in the order of their positions; H or OH if unused. Positions of bridges follow the written chain, without caps; N, C: chain ends. Non-standard residues stand in square brackets, D forms with d. Groups on a side chain read outwards from the residue. *: point of attachment. Trp(1-Me) = Cn1cc(C[C@H](N)C(=O)O)c2ccccc21; C18 diacid = O=C(O)CCCCCCCCCCCCCCCCC(=O)*; C16 diacid = O=C(O)CCCCCCCCCCCCCCC(=O)*; γGlu = O=C(O)[C@H](CCC(=O)[*:2])N[*:1]; AEEA = NCCOCCOCC(=O)O; Sar = CNCC(=O)O
# Molecular target: Human C3 (human, UniProt P01024 23-1663)
# Sequence (P01024 23-1663 limits assumed): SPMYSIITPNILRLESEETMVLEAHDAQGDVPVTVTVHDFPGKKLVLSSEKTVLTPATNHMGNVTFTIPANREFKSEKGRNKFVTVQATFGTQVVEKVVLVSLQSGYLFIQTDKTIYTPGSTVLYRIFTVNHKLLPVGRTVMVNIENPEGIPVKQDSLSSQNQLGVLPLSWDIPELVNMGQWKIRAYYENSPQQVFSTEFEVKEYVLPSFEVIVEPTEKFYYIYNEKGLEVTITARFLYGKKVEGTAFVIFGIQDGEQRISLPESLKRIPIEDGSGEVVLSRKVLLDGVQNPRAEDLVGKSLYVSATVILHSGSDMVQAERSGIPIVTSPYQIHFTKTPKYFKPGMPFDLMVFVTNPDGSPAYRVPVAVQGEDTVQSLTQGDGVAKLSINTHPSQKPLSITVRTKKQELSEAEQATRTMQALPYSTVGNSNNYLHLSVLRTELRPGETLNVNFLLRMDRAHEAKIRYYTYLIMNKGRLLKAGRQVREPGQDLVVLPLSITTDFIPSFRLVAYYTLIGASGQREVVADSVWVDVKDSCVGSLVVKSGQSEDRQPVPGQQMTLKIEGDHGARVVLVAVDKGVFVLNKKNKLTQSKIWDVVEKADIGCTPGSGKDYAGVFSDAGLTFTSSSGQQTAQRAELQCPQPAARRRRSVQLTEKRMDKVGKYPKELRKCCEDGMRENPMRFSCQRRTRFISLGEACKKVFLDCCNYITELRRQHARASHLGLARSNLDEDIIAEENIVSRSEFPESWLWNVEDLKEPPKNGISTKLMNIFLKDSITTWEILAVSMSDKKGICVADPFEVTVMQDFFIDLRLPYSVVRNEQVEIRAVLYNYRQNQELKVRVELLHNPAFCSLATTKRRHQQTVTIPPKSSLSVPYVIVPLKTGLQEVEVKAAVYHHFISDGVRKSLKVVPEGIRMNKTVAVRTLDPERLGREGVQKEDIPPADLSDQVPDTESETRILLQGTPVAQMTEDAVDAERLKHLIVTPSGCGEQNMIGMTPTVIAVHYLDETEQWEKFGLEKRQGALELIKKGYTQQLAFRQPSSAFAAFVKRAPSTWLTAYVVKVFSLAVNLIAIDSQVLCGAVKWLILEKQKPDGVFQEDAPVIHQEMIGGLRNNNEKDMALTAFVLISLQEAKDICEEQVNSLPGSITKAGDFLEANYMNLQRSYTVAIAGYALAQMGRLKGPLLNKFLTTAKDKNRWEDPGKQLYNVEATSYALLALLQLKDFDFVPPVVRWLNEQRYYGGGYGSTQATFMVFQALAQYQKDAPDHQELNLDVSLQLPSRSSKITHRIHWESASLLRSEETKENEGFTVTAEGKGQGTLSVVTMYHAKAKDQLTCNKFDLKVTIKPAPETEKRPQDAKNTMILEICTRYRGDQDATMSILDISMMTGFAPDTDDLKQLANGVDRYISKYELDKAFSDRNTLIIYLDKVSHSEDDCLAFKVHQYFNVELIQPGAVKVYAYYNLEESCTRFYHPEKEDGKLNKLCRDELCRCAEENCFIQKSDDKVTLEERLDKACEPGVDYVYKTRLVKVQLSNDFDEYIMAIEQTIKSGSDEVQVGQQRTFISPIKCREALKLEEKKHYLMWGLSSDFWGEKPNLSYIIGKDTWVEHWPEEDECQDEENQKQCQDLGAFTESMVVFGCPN
# Assay: cell-based or functional assay
row,Binder,"IC50[nM], inhibition of hemolysis [nM]"
1,Ac-EGSAYCI[Trp(1-Me)]QDWGEHK([AEEA-AEEA-γGlu-C16 diacid])C[Sar]E-NH2 (disulfide 6-16; SMILES CC[C@H](C)[C@@H]1NC(=O)[C@@H](NC(=O)[C@H](Cc2ccc(O)cc2)NC(=O)[C@H](C)NC(=O)[C@H](CO)NC(=O)CNC(=O)[C@H](CCC(=O)O)NC(C)=O)CSSC[C@@H](C(=O)N(C)CC(=O)N[C@@H](CCC(=O)O)C(N)=O)NC(=O)[C@H](CCCCNC(=O)COCCOCCNC(=O)COCCOCCNC(=O)CC[C@H](NC(=O)CCCCCCCCCCCCCCC(=O)O)C(=O)O)NC(=O)[C@H](Cc2c[nH]cn2)NC(=O)[C@H](CCC(=O)O)NC(=O)CNC(=O)[C@H](Cc2c[nH]c3ccccc23)NC(=O)[C@H](CC(=O)O)NC(=O)[C@H](CCC(N)=O)NC(=O)[C@H](Cc2cn(C)c3ccccc23)NC1=O) [Compound 103],< 100
2,{C18 diacid}-EGSEYCI[Trp(1-Me)]QDWGEHRC[Sar]E-NH2 (disulfide 6-16; SMILES CC[C@H](C)[C@@H]1NC(=O)[C@@H](NC(=O)[C@H](Cc2ccc(O)cc2)NC(=O)[C@H](CCC(=O)O)NC(=O)[C@H](CO)NC(=O)CNC(=O)[C@H](CCC(=O)O)NC(=O)CCCCCCCCCCCCCCCCC(=O)O)CSSC[C@@H](C(=O)N(C)CC(=O)N[C@@H](CCC(=O)O)C(N)=O)NC(=O)[C@H](CCCNC(=N)N)NC(=O)[C@H](Cc2c[nH]cn2)NC(=O)[C@H](CCC(=O)O)NC(=O)CNC(=O)[C@H](Cc2c[nH]c3ccccc23)NC(=O)[C@H](CC(=O)O)NC(=O)[C@H](CCC(N)=O)NC(=O)[C@H](Cc2cn(C)c3ccccc23)NC1=O) [Compound 108],< 500
3,Ac-SAYCI[Trp(1-Me)]QDWGEHRC[Sar]EK([γGlu-Gly-Lys-γGlu-C18 diacid])-NH2 (disulfide 4-14) [Compound 105],< 100
4,Ac-SEYCI[Trp(1-Me)]QDWGEHRC[Sar]EGEK([γGlu-Lys-γGlu-C18 diacid])-NH2 (disulfide 4-14) [Compound 116],< 500
5,Ac-SEYCI[Trp(1-Me)]QDWGEHRC[Sar]EGKK([γGlu-Gly-γGlu-C18 diacid])-NH2 (disulfide 4-14; SMILES CC[C@H](C)[C@@H]1NC(=O)[C@@H](NC(=O)[C@H](Cc2ccc(O)cc2)NC(=O)[C@H](CCC(=O)O)NC(=O)[C@H](CO)NC(C)=O)CSSC[C@@H](C(=O)N(C)CC(=O)N[C@@H](CCC(=O)O)C(=O)NCC(=O)N[C@@H](CCCCN)C(=O)N[C@@H](CCCCNC(=O)CC[C@H](NC(=O)CNC(=O)CC[C@H](NC(=O)CCCCCCCCCCCCCCCCC(=O)O)C(=O)O)C(=O)O)C(N)=O)NC(=O)[C@H](CCCNC(=N)N)NC(=O)[C@H](Cc2c[nH]cn2)NC(=O)[C@H](CCC(=O)O)NC(=O)CNC(=O)[C@H](Cc2c[nH]c3ccccc23)NC(=O)[C@H](CC(=O)O)NC(=O)[C@H](CCC(N)=O)NC(=O)[C@H](Cc2cn(C)c3ccccc23)NC1=O) [Compound 115],< 250
6,Ac-SEFCI[Trp(1-Me)]QDWGEHRCTEGEGGGK([γGlu-Gly-γGlu-C16 diacid])-NH2 (disulfide 4-14; SMILES CC[C@H](C)[C@@H]1NC(=O)[C@@H](NC(=O)[C@H](Cc2ccccc2)NC(=O)[C@H](CCC(=O)O)NC(=O)[C@H](CO)NC(C)=O)CSSC[C@@H](C(=O)N[C@H](C(=O)N[C@@H](CCC(=O)O)C(=O)NCC(=O)N[C@@H](CCC(=O)O)C(=O)NCC(=O)NCC(=O)NCC(=O)N[C@@H](CCCCNC(=O)CC[C@H](NC(=O)CNC(=O)CC[C@H](NC(=O)CCCCCCCCCCCCCCC(=O)O)C(=O)O)C(=O)O)C(N)=O)[C@@H](C)O)NC(=O)[C@H](CCCNC(=N)N)NC(=O)[C@H](Cc2c[nH]cn2)NC(=O)[C@H](CCC(=O)O)NC(=O)CNC(=O)[C@H](Cc2c[nH]c3ccccc23)NC(=O)[C@H](CC(=O)O)NC(=O)[C@H](CCC(N)=O)NC(=O)[C@H](Cc2cn(C)c3ccccc23)NC1=O) [Compound 131],< 100
7,Ac-ASGEYCI[Trp(1-Me)]QDWGEHRC[Sar]EGEK([γGlu-Gly-γGlu-C18 diacid])-NH2 (disulfide 6-16; SMILES CC[C@H](C)[C@@H]1NC(=O)[C@@H](NC(=O)[C@H](Cc2ccc(O)cc2)NC(=O)[C@H](CCC(=O)O)NC(=O)CNC(=O)[C@H](CO)NC(=O)[C@H](C)NC(C)=O)CSSC[C@@H](C(=O)N(C)CC(=O)N[C@@H](CCC(=O)O)C(=O)NCC(=O)N[C@@H](CCC(=O)O)C(=O)N[C@@H](CCCCNC(=O)CC[C@H](NC(=O)CNC(=O)CC[C@H](NC(=O)CCCCCCCCCCCCCCCCC(=O)O)C(=O)O)C(=O)O)C(N)=O)NC(=O)[C@H](CCCNC(=N)N)NC(=O)[C@H](Cc2c[nH]cn2)NC(=O)[C@H](CCC(=O)O)NC(=O)CNC(=O)[C@H](Cc2c[nH]c3ccccc23)NC(=O)[C@H](CC(=O)O)NC(=O)[C@H](CCC(N)=O)NC(=O)[C@H](Cc2cn(C)c3ccccc23)NC1=O) [Compound 113],< 500
8,Ac-SEYCI[Trp(1-Me)]QDWGEHRC[Sar]EGEK([γGlu-Gly-γGlu-C18 diacid])-NH2 (disulfide 4-14; SMILES CC[C@H](C)[C@@H]1NC(=O)[C@@H](NC(=O)[C@H](Cc2ccc(O)cc2)NC(=O)[C@H](CCC(=O)O)NC(=O)[C@H](CO)NC(C)=O)CSSC[C@@H](C(=O)N(C)CC(=O)N[C@@H](CCC(=O)O)C(=O)NCC(=O)N[C@@H](CCC(=O)O)C(=O)N[C@@H](CCCCNC(=O)CC[C@H](NC(=O)CNC(=O)CC[C@H](NC(=O)CCCCCCCCCCCCCCCCC(=O)O)C(=O)O)C(=O)O)C(N)=O)NC(=O)[C@H](CCCNC(=N)N)NC(=O)[C@H](Cc2c[nH]cn2)NC(=O)[C@H](CCC(=O)O)NC(=O)CNC(=O)[C@H](Cc2c[nH]c3ccccc23)NC(=O)[C@H](CC(=O)O)NC(=O)[C@H](CCC(N)=O)NC(=O)[C@H](Cc2cn(C)c3ccccc23)NC1=O) [Compound 114],< 500
9,Ac-EGSAYCI[Trp(1-Me)]QDWGEHRC[Sar]EGKK([γGlu-Gly-γGlu-C18 diacid])-NH2 (disulfide 6-16; SMILES CC[C@H](C)[C@@H]1NC(=O)[C@@H](NC(=O)[C@H](Cc2ccc(O)cc2)NC(=O)[C@H](C)NC(=O)[C@H](CO)NC(=O)CNC(=O)[C@H](CCC(=O)O)NC(C)=O)CSSC[C@@H](C(=O)N(C)CC(=O)N[C@@H](CCC(=O)O)C(=O)NCC(=O)N[C@@H](CCCCN)C(=O)N[C@@H](CCCCNC(=O)CC[C@H](NC(=O)CNC(=O)CC[C@H](NC(=O)CCCCCCCCCCCCCCCCC(=O)O)C(=O)O)C(=O)O)C(N)=O)NC(=O)[C@H](CCCNC(=N)N)NC(=O)[C@H](Cc2c[nH]cn2)NC(=O)[C@H](CCC(=O)O)NC(=O)CNC(=O)[C@H](Cc2c[nH]c3ccccc23)NC(=O)[C@H](CC(=O)O)NC(=O)[C@H](CCC(N)=O)NC(=O)[C@H](Cc2cn(C)c3ccccc23)NC1=O) [Compound 110],< 250
10,Ac-SEYCI[Trp(1-Me)]QDWGEHRC[Sar]EGAK([γGlu-Gly-γGlu-C18 diacid])-NH2 (disulfide 4-14; SMILES CC[C@H](C)[C@@H]1NC(=O)[C@@H](NC(=O)[C@H](Cc2ccc(O)cc2)NC(=O)[C@H](CCC(=O)O)NC(=O)[C@H](CO)NC(C)=O)CSSC[C@@H](C(=O)N(C)CC(=O)N[C@@H](CCC(=O)O)C(=O)NCC(=O)N[C@@H](C)C(=O)N[C@@H](CCCCNC(=O)CC[C@H](NC(=O)CNC(=O)CC[C@H](NC(=O)CCCCCCCCCCCCCCCCC(=O)O)C(=O)O)C(=O)O)C(N)=O)NC(=O)[C@H](CCCNC(=N)N)NC(=O)[C@H](Cc2c[nH]cn2)NC(=O)[C@H](CCC(=O)O)NC(=O)CNC(=O)[C@H](Cc2c[nH]c3ccccc23)NC(=O)[C@H](CC(=O)O)NC(=O)[C@H](CCC(N)=O)NC(=O)[C@H](Cc2cn(C)c3ccccc23)NC1=O) [Compound 112],< 500
11,Ac-EGSAYCI[Trp(1-Me)]QDWGEHRC[Sar]EGEK([γGlu-Gly-γGlu-C18 diacid])-NH2 (disulfide 6-16; SMILES CC[C@H](C)[C@@H]1NC(=O)[C@@H](NC(=O)[C@H](Cc2ccc(O)cc2)NC(=O)[C@H](C)NC(=O)[C@H](CO)NC(=O)CNC(=O)[C@H](CCC(=O)O)NC(C)=O)CSSC[C@@H](C(=O)N(C)CC(=O)N[C@@H](CCC(=O)O)C(=O)NCC(=O)N[C@@H](CCC(=O)O)C(=O)N[C@@H](CCCCNC(=O)CC[C@H](NC(=O)CNC(=O)CC[C@H](NC(=O)CCCCCCCCCCCCCCCCC(=O)O)C(=O)O)C(=O)O)C(N)=O)NC(=O)[C@H](CCCNC(=N)N)NC(=O)[C@H](Cc2c[nH]cn2)NC(=O)[C@H](CCC(=O)O)NC(=O)CNC(=O)[C@H](Cc2c[nH]c3ccccc23)NC(=O)[C@H](CC(=O)O)NC(=O)[C@H](CCC(N)=O)NC(=O)[C@H](Cc2cn(C)c3ccccc23)NC1=O) [Compound 109],< 250
12,Ac-SEFCI[Trp(1-Me)]QDWGEHRC[Sar]EGEGGGK([γGlu-Gly-γGlu-C18 diacid])-NH2 (disulfide 4-14; SMILES CC[C@H](C)[C@@H]1NC(=O)[C@@H](NC(=O)[C@H](Cc2ccccc2)NC(=O)[C@H](CCC(=O)O)NC(=O)[C@H](CO)NC(C)=O)CSSC[C@@H](C(=O)N(C)CC(=O)N[C@@H](CCC(=O)O)C(=O)NCC(=O)N[C@@H](CCC(=O)O)C(=O)NCC(=O)NCC(=O)NCC(=O)N[C@@H](CCCCNC(=O)CC[C@H](NC(=O)CNC(=O)CC[C@H](NC(=O)CCCCCCCCCCCCCCCCC(=O)O)C(=O)O)C(=O)O)C(N)=O)NC(=O)[C@H](CCCNC(=N)N)NC(=O)[C@H](Cc2c[nH]cn2)NC(=O)[C@H](CCC(=O)O)NC(=O)CNC(=O)[C@H](Cc2c[nH]c3ccccc23)NC(=O)[C@H](CC(=O)O)NC(=O)[C@H](CCC(N)=O)NC(=O)[C@H](Cc2cn(C)c3ccccc23)NC1=O) [Compound 129],< 100
